From patent publication US20030152568A1

Target: FGF receptor-3c on human osteosarcoma cell line (ATCC, CRL 1543) (human) (UniProt P22607)
Experiment: cell-based or functional assay

UniProt P22607, sequence (P22607 23-806): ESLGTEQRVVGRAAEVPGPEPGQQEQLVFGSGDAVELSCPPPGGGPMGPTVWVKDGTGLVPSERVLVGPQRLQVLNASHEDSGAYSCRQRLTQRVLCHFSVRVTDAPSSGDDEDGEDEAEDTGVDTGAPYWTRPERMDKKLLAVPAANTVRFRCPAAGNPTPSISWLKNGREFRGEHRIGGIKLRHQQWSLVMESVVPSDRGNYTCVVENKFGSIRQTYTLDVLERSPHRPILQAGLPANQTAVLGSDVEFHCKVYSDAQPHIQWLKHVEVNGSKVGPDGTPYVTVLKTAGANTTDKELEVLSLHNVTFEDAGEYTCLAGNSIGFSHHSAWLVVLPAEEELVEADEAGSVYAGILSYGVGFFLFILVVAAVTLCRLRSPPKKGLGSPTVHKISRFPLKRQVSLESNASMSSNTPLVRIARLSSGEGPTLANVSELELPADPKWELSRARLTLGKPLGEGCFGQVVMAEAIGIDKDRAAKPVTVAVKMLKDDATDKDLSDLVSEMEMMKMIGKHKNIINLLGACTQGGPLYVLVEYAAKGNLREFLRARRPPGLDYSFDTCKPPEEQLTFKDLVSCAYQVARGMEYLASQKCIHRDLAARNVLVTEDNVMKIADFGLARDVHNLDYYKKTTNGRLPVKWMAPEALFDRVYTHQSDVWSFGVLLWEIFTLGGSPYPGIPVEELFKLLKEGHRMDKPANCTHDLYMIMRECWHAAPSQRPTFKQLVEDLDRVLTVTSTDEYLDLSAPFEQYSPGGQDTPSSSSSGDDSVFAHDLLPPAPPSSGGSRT
FGF-18-saporin conjugate, sequence (O76093 28-207): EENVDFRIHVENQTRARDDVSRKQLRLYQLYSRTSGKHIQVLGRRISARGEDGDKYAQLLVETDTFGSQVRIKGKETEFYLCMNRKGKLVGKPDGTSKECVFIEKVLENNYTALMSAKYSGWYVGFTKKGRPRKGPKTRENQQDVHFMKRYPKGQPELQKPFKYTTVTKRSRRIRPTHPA

Substance: FGF-18-saporin conjugate
- LD50 (sensitivity of cell lines to the FGF-18-saporin conjugate): < 1 nM
